Reference: US20030036181A1 (MAXYGEN, published 2003)

Molecular target: T1, human FSH receptor, stably expressed on CHO K1 cells (CHO FSH-R/CRE-luc cell line) (human, UniProt P23945 18-695)
T1 sequence (looked up): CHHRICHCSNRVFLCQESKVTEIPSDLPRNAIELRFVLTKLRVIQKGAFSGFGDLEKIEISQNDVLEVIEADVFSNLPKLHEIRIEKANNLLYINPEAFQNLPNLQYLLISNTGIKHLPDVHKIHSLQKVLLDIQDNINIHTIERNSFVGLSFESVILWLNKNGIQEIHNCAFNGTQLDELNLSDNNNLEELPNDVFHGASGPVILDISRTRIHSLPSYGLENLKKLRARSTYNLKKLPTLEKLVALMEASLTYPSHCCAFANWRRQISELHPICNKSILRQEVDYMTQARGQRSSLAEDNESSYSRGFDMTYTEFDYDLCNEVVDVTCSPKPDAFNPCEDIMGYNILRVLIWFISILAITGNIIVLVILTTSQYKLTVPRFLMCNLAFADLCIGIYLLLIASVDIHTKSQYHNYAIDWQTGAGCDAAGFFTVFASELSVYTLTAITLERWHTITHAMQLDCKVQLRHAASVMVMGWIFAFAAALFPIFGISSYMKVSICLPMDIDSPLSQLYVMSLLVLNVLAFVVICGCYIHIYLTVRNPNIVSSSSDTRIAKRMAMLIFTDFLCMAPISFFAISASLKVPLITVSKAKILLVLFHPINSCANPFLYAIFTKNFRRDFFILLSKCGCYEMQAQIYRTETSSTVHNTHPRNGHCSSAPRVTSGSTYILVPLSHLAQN
Assay: cell-based or functional assay

B1: FSH1208: variant form of FSH containing two N-linked glycosylations at the N-terminus of the alpha subunit (ligand)
chain 1: not shown
chain 2: CELTNITIAIEKEECRFCISINTTWCAGYCYTRDLVYKDPARPKIQKTCTFKELVYETVRVPGCAHHADSLYTYPVATQCHCGKCDSDSTDCTVRGLGPSYCSFGEMKE
modifications: both asparagine residues of the extension … are glycosylated
  specific activity (in vitro bioactivity in the FSH luciferase assay over FSH content by ELISA), relative to the wildtype reference: ~0.33 fold of wildtype FSH
